Laboratory results: patent US10689452 (UNIVERSIT T STUTTGART, dated 2020)

T1: human TNFR1 on cells (HT1080, HeLa, Kym-1) (human, UniProt P19438 30-455)
T1 sequence (looked up): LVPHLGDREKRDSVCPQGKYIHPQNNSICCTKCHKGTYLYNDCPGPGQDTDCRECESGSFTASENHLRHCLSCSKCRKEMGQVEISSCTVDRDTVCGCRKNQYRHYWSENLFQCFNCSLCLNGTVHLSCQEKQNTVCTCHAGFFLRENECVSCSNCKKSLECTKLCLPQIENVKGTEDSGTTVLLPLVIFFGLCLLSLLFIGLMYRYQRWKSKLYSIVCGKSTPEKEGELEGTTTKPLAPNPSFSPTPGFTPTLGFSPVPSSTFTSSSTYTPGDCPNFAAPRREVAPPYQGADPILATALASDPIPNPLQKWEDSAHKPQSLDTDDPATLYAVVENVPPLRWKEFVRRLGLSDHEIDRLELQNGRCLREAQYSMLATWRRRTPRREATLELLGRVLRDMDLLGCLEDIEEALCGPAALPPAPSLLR

T2: human TNFR1-Fc fusion protein (human, UniProt P19438 29-211)
T2 construct: range 29-211; Made in stably transfected HEK293 cells; coated on ELISA plates or immobilised on QCM chips; also called huTNFR1-Fc; human TNFR-Fc; not shown: Fc part from vector pSecTagL1-Fc
T2 sequence (looked up): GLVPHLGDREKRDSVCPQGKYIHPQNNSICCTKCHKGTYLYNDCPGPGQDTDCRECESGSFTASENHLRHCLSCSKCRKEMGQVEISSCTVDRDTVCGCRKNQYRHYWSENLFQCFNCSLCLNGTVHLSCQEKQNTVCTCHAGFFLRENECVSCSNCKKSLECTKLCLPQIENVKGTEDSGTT

B1: Fab13.7-MSA (Fab)
heavy: HVQLVQSGAEVKKPGSSVKVSCKASGYTFTDFYINWVRQAPGQGLEWIGEIVPSQGEAKYNDKFKARVTITADKSTSTAYMELSSLRSEDTAVYYCARWDFLDYWGQGTTVTVSSASTKGPSVFPLAPSSKSTSGGTAALGCLVKDYFPEPVTVSWNSGALTSGVHTFPAVLQSSGLYSLSSVVTVPSSSLGTQTYICNVNHKPSNTKVDKKVEPKSCGGGGSGGGGSSLEAHKSEIAHRYNDLGEQHFKGLVLIAFSQYLQKCSYDEHAKLVQEVTDFAKTCVADESAANCDKSLHTLFGDKLCAIPNLRENYGELADCCTKQEPERNECFLQHKDDNPSLPPFERPEAEAMCTSFKENPTTFMGHYLHEVARRHPYFYAPELLYYAEQYNEILTQCCAEADKESCLTPKLDGVKEKALVSSVRQRMKCSSMQKFGERAFKAWAVARLSQTFPNADFAEITKLATDLTKVNKECCHGDLLECADDRAELAKYMCENQATISSKLQTCCDKPLLKKAHCLSEVEHDTMPADLPAIAADFVEDQEVCKNYAEAKDVFLGTFLYEYSRRHPDYSVSLLLRLAKKYEATLEKCCAEANPPACYGTVLAEFQPLVEEPKNLVKTNCDLYEKLGEYGFQNAILVRYTQKAPQVSTPTLVEAARNLGRVGTKCCTLPEDQRLPCVEDYLSAILNRVCLLHEKTPVSEHVTKCCSGSLVERRPCFSALTVDETYVPKEFKAETFTFHSDICTLPEKEKQIKKQTALAELVKHKPKATAEQLKTVMDDFAQFLDTCCKAADKDTCFSTEGPNLVGGAAAHHHHHH
light: DVQMTQSPSSLSASVGDRVTITCRSSQSLLHSNGNTYLHWYQQKPGKAPKLLIYTVSNRFSGVPSRFSGSGSGTDFTLTISSLQPEDFATYYCSQSTHVPYTFGGGTKVEIKRTVAAPSVFIFPPSDEQLKSGTASVVCLLNNFYPREAKVQWKVDNALQSGNSQESVTEQDSKDSTYSLSSTLTLSKADYEKHKVYACEVTHQGLSSPVTKSFNRGEC
notes: also called Fab13.7 MSA fusion protein
B2: IgG13.7half (antibody, V domains shown)
VH: HVQLVQSGAEVKKPGSSVKVSCKASGYTFTDFYINWVRQAPGQGLEWIGEIVPSQGEAKYNDKFKARVTITADKSTSTAYMELSSLRSEDTAVYYCARWDFLDYWGQGTTVTVSS
VL: DVQMTQSPSSLSASVGDRVTITCRSSQSLLHSNGNTYLHWYQQKPGKAPKLLIYTVSNRFSGVPSRFSGSGSGTDFTLTISSLQPEDFATYYCSQSTHVPYTFGGGTKVEIKR
notes: Monovalent half IgG1

Legend:
[1] = target: T1, human TNFR1 on cells (HT1080, HeLa, …); assay: cell-based or functional assay
[2] = target: T2, human TNFR1-Fc fusion protein; assay: ELISA, immobilised human TNFR1-Fc
[3] = target: T2, human TNFR1-Fc fusion protein; assay: ELISA, immobilised human TNFR1-Fc; remark: listed apart in the source
[4] = target: T1, human TNFR1 on cells (HT1080, HeLa, …); assay: cell-based or functional assay; remark: listed apart in the source

| Binder | fold higher IC50 (IL-8 release inhibition) compared to Fab13.7 [1] [fold] | fold increased EC50 compared to unmodified Fab13.7 [2] [fold] | EC50 [3] [nM] | IL-8 Inhibition IC50 [nM] (HT1080 cells, 0.1 nM soluble TNF) [4] |
| --- | --- | --- | --- | --- |
| B1 | 1.9 | 1.7 | 0.7 | 65.5 |
| B2 | 1.8 | 1.9 | 0.8 | 63.3 |
